Experimental findings from PMC5522446, “The N-terminal dimerization is required for TDP-43 splicing activity” (Scientific Reports, 2017) are described below.

Data set [1] deals with TDP(1–77)-C39/C50S (human) (UniProt Q13148). As to the kind of experiment: SEC; protein at 500 µM; Superdex-200 Increase 10/300 GL; Buffer A; room temperature. In general terms: In gel filtration, larger molecules generally elute earlier.
The target is the same in data set [2]. Nature of the data set: SEC; protein at 10 µM; Superdex-200 Increase 10/300 GL; Buffer A; room temperature.
Data set [3] shares this target. As to the kind of experiment: SEC; protein at 250 µM; Superdex-200 Increase 10/300 GL; Buffer A; room temperature.
Data set [4] shares this target. As to the kind of experiment: SEC; protein at 50 µM; Superdex-200 Increase 10/300 GL; Buffer A (25 mM Tris-HCl, pH 8.0, 150 mM NaCl); room temperature; apparent MW from standard proteins.
Data set [5] concerns the molecule itself. As to the kind of experiment: SEC; protein at 500 µM treated with 5 mM DTT; Superdex-200 Increase 10/300 GL; Buffer A; room temperature.
Data set [6] concerns the molecule itself. Nature of the data set: SEC; protein at 250 µM; Superdex-200 Increase 10/300 GL; Buffer A; room temperature.
Data set [7] deals with the molecule itself. Nature of the data set: SEC; protein at 500 µM; Superdex-200 Increase 10/300 GL; Buffer A; room temperature.
Data set [8] concerns the molecule itself. Nature of the data set: SEC; protein at 50 µM; Superdex-200 Increase 10/300 GL; Buffer A (25 mM Tris-HCl, pH 8.0, 150 mM NaCl); room temperature; apparent MW from standard proteins.
Data set [9] deals with the molecule itself. As to the kind of experiment: SEC; protein at 10 µM; Superdex-200 Increase 10/300 GL; Buffer A; room temperature.
Data set [10] concerns the molecule itself. Nature of the data set: SEC; protein at 50 µM; Superdex-200 Increase 10/300 GL; Buffer A (25 mM Tris-HCl, pH 8.0, 150 mM NaCl); room temperature; apparent MW from standard proteins. The source holds these as a separate data set.
Data set [11] concerns the molecule itself. Nature of the data set: SEC; series of different protein concentrations (Fig. S1, Fig. S2D,E); Buffer A; room temperature.

As to “TDP(1–77)-C39/C50S (from UniProt Q13148 1-77) (domain or fragment)”, the stoichiometry N (usually a count of units in the complex or per binding partner) in data set [1] amounted to 1.8; in [2], 1.7; in data set [3] it was 1.8; in [4] it was 1.7.

B1: TDP(1–77) (domain or fragment, human, UniProt Q13148 1-77, looked up)
chain: MSEYIRVTEDENDEPIEIPSEDDGTVLLSTVTAQFPGACGLRYRNPVSQCMRGVRLVEGILHAPDAGWGNLVYVVNY
notes: TDP-43, human, residues 1-77; pET22b, Nde I/Xho I; C-terminal His6 surmised; Printed theoretical MW 9.6 kDa; PDB 2N4P (cited) is His6-TDP(1–77); also called N-terminal 77-residue construct; wild-type TDP(1–77); source: E. coli BL21 (DE3), purified (Ni2+-NTA, SEC)
Turning to B1, the “stoichiometry N” value amounted to 2.4 in data set [5]; 2.1 in [6]; 2.3 in [7]; 1.8 in [8]; 1.7 in [9].

B2: TDP(1–89) (domain or fragment, human, UniProt Q13148 1-89, looked up)
chain: MSEYIRVTEDENDEPIEIPSEDDGTVLLSTVTAQFPGACGLRYRNPVSQCMRGVRLVEGILHAPDAGWGNLVYVVNYPKDNKRKMDETD
notes: TDP-43, human, residues 1-89; pET22b, Nde I/Xho I; C-terminal His6 surmised; Printed theoretical MW 11.1 kDa; also called TDP-43 NTD; source: E. coli BL21 (DE3), purified (Ni2+-NTA, SEC)
As for B2, the “stoichiometry N” value in [10] was found to be 2.4.

B3: TDP(1–89) Cys mutant (Cys39 and Cys50 to Ser) (domain or fragment, human, UniProt Q13148 1-89, looked up)
chain: MSEYIRVTEDENDEPIEIPSEDDGTVLLSTVTAQFPGASGLRYRNPVSQSMRGVRLVEGILHAPDAGWGNLVYVVNYPKDNKRKMDETD
notes: TDP-43, human, residues 1-89 with Cys39 and Cys50 mutated to Ser; pET22b, Nde I/Xho I; C-terminal His6 surmised; also called TDP(1–89) mutant; source: E. coli BL21 (DE3), purified (Ni2+-NTA, SEC)
For B3, the binding result in data set [11] is reported as “binds”.
